Measured values reported in paper PMC3281905, “Structure-Based Rational Design of a Toll-like Receptor 4 (TLR4) Decoy Receptor with High Binding Affinity for a Target Protein” (PLoS ONE, 2012).
Blank lines part the entries; values can stand above or below the binder they belong to.

B2: myeloid differentiation protein 2 (MD2) (natural protein, human)
chain: QKQYWVCNSSDASISYTYCDKMQYPISINVNPCIELKRSKGLLHIFYIPRRDLKQLYFNLYITVNTMNLPKRKEVICRGSDDDYSFCRALKGETVNTTISFSFKGIKFSKGKYKCVVEAISGSPEEMLFCLEFVILHQPN
notes: human MD2 (myeloid differentiation protein 2); Secreted from insect cells with the vector pAcGP67; also called human MD2; source: monomeric MD2 from Superdex 75)

Legend:
Experiment in all cases: SPR; Biacore 3000; decoy receptor or variant covalently immobilised on a CM5 chip (EDC/NHS, 500-800 RU); MD2 4 nM to 2 µM in HBS-EP injected at 60 µL/min for 90 sec, 30 min dissociation; 1:1 Langmuir model
Details in all cases: both partners purified
[1] = target: B2
[2] = target: TLR4 decoy receptor TV3 N156I (human | hagfish, UniProt O00206 27-228; O00206 27-228, N156I)
[3] = target: TLR4 decoy receptor TV3 F63W (human | hagfish, UniProt O00206 27-228; O00206 27-228, F63W)
[4] = target: TLR4 decoy receptor TV3 S184K (human | hagfish, UniProt O00206 27-228; O00206 27-228, S184K)
[5] = target: TLR4 decoy receptor TV3 D181E (human | hagfish, UniProt O00206 27-228; O00206 27-228, D181E)
[6] = target: TLR4 decoy receptor TV3 M41E (human | hagfish, UniProt O00206 27-228; O00206 27-228, M41E)
[7] = target: TLR4 decoy receptor TV3 H159Q (human | hagfish, UniProt O00206 27-228; O00206 27-228, H159Q)
[8] = target: TLR4 decoy receptor TV3 V132F (human | hagfish, UniProt O00206 27-228; O00206 27-228, V132F)
[9] = target: TLR4 decoy receptor TV3 V134L (human | hagfish, UniProt O00206 27-228; O00206 27-228, V134L)
[10] = target: TLR4 decoy receptor TV3 F63L (human | hagfish, UniProt O00206 27-228; O00206 27-228, F63L)
[11] = target: TLR4 decoy receptor TV3 F63W/D181E (human | hagfish, UniProt O00206 27-228; O00206 27-228, F63W | D181E)
[12] = target: TLR4 decoy receptor TV3 F63W/V134L (human | hagfish, UniProt O00206 27-228; O00206 27-228, F63W | V134L)
[13] = target: TLR4 decoy receptor TV3 M41E/H159Q (human | hagfish, UniProt O00206 27-228; O00206 27-228, M41E | H159Q)
[14] = target: TLR4 decoy receptor TV3 M41E/F63W (human | hagfish, UniProt O00206 27-228; O00206 27-228, M41E | F63W)
[15] = target: TLR4 decoy receptor TV3 V134L/H159Q (human | hagfish, UniProt O00206 27-228; O00206 27-228, V134L | H159Q)

Sequence of TLR4 decoy receptor TV3 M41E/F63W (O00206 other isoform, or with tags, fused parts or gaps M41E | F63W | M41E | F63W | M41E F63W): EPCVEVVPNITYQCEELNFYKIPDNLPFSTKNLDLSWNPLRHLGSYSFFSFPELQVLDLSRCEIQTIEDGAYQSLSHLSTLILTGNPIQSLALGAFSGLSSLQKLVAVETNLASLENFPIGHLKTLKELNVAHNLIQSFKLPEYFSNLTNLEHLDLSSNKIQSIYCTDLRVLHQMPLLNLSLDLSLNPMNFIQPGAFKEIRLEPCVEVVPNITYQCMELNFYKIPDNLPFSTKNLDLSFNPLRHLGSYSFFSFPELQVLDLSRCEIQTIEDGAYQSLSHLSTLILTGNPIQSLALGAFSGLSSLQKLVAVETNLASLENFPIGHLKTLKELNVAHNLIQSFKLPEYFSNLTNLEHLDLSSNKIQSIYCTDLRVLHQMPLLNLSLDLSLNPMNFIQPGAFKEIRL
Sequence of TLR4 decoy receptor TV3 M41E (O00206 other isoform, or with tags, fused parts or gaps M41E | M41E | M41E): as the sequence (O00206 other isoform, or with tags, fused parts or gaps M41E | F63W | M41E | F63W | M41E F63W) above, with W37F counted along it
Sequence of TLR4 decoy receptor TV3 M41E/H159Q (O00206 other isoform, or with tags, fused parts or gaps M41E | H159Q | M41E | H159Q | M41E H159Q): as the sequence (O00206 other isoform, or with tags, fused parts or gaps M41E | F63W | M41E | F63W | M41E F63W) above, with W37F, H133Q counted along it

Kd [1]: 78 nM
koff [1]: 0.00222 s⁻¹
kon [1]: 28400 M⁻¹ s⁻¹
B1: TLR4 decoy receptor, TV3 (wild-type) (designed binder)
chain: EPCVEVVPNITYQCMELNFYKIPDNLPFSTKNLDLSFNPLRHLGSYSFFSFPELQVLDLSRCEIQTIEDGAYQSLSHLSTLILTGNPIQSLALGAFSGLSSLQKLVAVETNLASLENFPIGHLKTLKELNVAHNLIQSFKLPEYFSNLTNLEHLDLSSNKIQSIYCTDLRVLHQMPLLNLSLDLSLNPMNFIQPGAFKEIRLKELALDTNQLKSVPDGIFDRLTSLQKIWLHTNPWDCSCPRIDYLSRWLNKNSQKEQGSAKCSGSGKPVRSIICP
modifications: limits from the PDB 2Z65 entity (paper residue number = entity position + 26); secreted from insect cells, immobilized by amine coupling

Binder: B2
Kd [2]: 4.07 nM
koff [2]: 8.05e-05 s⁻¹
kon [2]: 19700 M⁻¹ s⁻¹
Kd [3]: 2.84 nM
koff [3]: 3.97e-05 s⁻¹
kon [3]: 13900 M⁻¹ s⁻¹
Kd [4]: 183 nM
koff [4]: 0.00141 s⁻¹
kon [4]: 7660 M⁻¹ s⁻¹
Kd [5]: 48.2 nM
koff [5]: 0.000924 s⁻¹
kon [5]: 19100 M⁻¹ s⁻¹
Kd [6]: 3.21 nM
koff [6]: 5.29e-05 s⁻¹
kon [6]: 16400 M⁻¹ s⁻¹
Kd [7]: 4.3 nM
koff [7]: 1e-05 s⁻¹
kon [7]: 2140 M⁻¹ s⁻¹
Kd [8]: 22.2 nM
koff [8]: 0.00154 s⁻¹
kon [8]: 69100 M⁻¹ s⁻¹
Kd [9]: 4.11 nM
koff [9]: 0.00011 s⁻¹
kon [9]: 26700 M⁻¹ s⁻¹
Kd [10]: 43.3 nM
koff [10]: 0.00115 s⁻¹
kon [10]: 26500 M⁻¹ s⁻¹
Kd [11]: 39 nM
koff [11]: 2.27e-05 s⁻¹
kon [11]: 583 M⁻¹ s⁻¹
Kd [12]: 283 nM
koff [12]: 0.00103 s⁻¹
kon [12]: 3660 M⁻¹ s⁻¹
Kd [13]: 145 nM
koff [13]: 0.000461 s⁻¹
kon [13]: 3160 M⁻¹ s⁻¹
Kd [14]: 0.026 nM
koff [14]: 5.23e-07 s⁻¹
kon [14]: 20100 M⁻¹ s⁻¹
Kd [15]: 0.138 nM
koff [15]: 6.12e-06 s⁻¹
kon [15]: 44100 M⁻¹ s⁻¹
